# Assay results as given in the RNAGym collection of RNA variant scans (doi:10.7554/elife.80360).
# B1: HDV Ribozyme (parent)
# chain: GGCCGGCAUGGUCCCAGCCUCCUCGCUGGCGCCGGCUGGGCAACAUUCCGAGGGGACCGUCCCCUCGGUAAUGGCGAAUGGGACCCA
# Variants of: B1
# Experiment: self-cleavage, relative activity (ratio to wild type); higher = more cleavage; co-transcriptional
row,Variant,self-cleavage
1,GACCGGCAUGGUCCCAGCCUCCUCGUUGGCGCCGGCUGGGCAACAUUCCGAGGGGACCGUCCCCUCGGUAAUGGCGAAUGGGACCCA [G2A C26U],0.138
2,GACCGGCAUGGUCCCAGCCUCAUCGCUGGCGCCGGCUGGGCAACAUUCCGAGGGGACCGUCCCCUCGGUAAUGGCGAAUGGGACCCA [G2A C22A],0.0205
3,GACCGGCAUGGUCCCAGCCUCUUCGCUGGCGCCGGCUGGGCAACAUUCCGAGGGGACCGUCCCCUCGGUAAUGGCGAAUGGGACCCA [G2A C22U],0.0183
4,GACCGGCAUGGUCCCAGCCUCCUCCCUGGCGCCGGCUGGGCAACAUUCCGAGGGGACCGUCCCCUCGGUAAUGGCGAAUGGGACCCA [G2A G25C],0.0744
5,GACCGGCAUGGUCCCAGCCUCCUCUCUGGCGCCGGCUGGGCAACAUUCCGAGGGGACCGUCCCCUCGGUAAUGGCGAAUGGGACCCA [G2A G25U],0.161
6,GACCGGCAUGGUCCCAGCCUCCUCACUGGCGCCGGCUGGGCAACAUUCCGAGGGGACCGUCCCCUCGGUAAUGGCGAAUGGGACCCA [G2A G25A],0.0346
7,GACCGGCAUGGUCCCAACCUCCUCGCUGGCGCCGGCUGGGCAACAUUCCGAGGGGACCGUCCCCUCGGUAAUGGCGAAUGGGACCCA [G2A G17A],0.0604
8,GACCGGCAUGGUCCCACCCUCCUCGCUGGCGCCGGCUGGGCAACAUUCCGAGGGGACCGUCCCCUCGGUAAUGGCGAAUGGGACCCA [G2A G17C],0
9,GACCGCCAUGGUCCCAGCCUCCUCGCUGGCGCCGGCUGGGCAACAUUCCGAGGGGACCGUCCCCUCGGUAAUGGCGAAUGGGACCCA [G2A G6C],0
10,GACCGUCAUGGUCCCAGCCUCCUCGCUGGCGCCGGCUGGGCAACAUUCCGAGGGGACCGUCCCCUCGGUAAUGGCGAAUGGGACCCA [G2A G6U],0.0683
11,GACCGGCAUGGUCCCAGACUCCUCGCUGGCGCCGGCUGGGCAACAUUCCGAGGGGACCGUCCCCUCGGUAAUGGCGAAUGGGACCCA [G2A C18A],0.0236
12,GACCGGCAUGGUCCCAGUCUCCUCGCUGGCGCCGGCUGGGCAACAUUCCGAGGGGACCGUCCCCUCGGUAAUGGCGAAUGGGACCCA [G2A C18U],0.0239
13,GACCGGCAUGGUCCCAGGCUCCUCGCUGGCGCCGGCUGGGCAACAUUCCGAGGGGACCGUCCCCUCGGUAAUGGCGAAUGGGACCCA [G2A C18G],0.0817
14,GACCGGCAUGGUCCCAGCCUCCUCGCUGGCGCCGGCUGGGCAACAUUCCGAGGGGACCGUCCCCUCGGUAAUGGCGAAUGGGACCCC [G2A A87C],0.273
15,GACCGGCAUGGUCCCAGCCUCCUCGCUGGCGCCGGCUGGGCAACAUUCCGAGGGGACCGUCCCCUCGGUAAUGGCGAAUGGGACCCU [G2A A87U],0.237
16,GACCGGCAUGGUCCCAGCCUCCUCGCUGGCGCCGGCUGGGCAACAUUCCGAGGGGACCGUCCCCUCGGUAAUGGCGAAUGGGACCCG [G2A A87G],0.145
17,GACCGGCAUGGUCCCAGCCUCCUCGCUGGCGCCGGCUGGGCAACAUUCCGAGGGGACCGUCCCCUCGGUAAUGGAGAAUGGGACCCA [G2A C75A],0.0542
18,GACCGGCAUGGUCCCAGCCUCCUCGCUGGCGCCGGCUGGGCAACAUUCCGAGGGGACCGUCCCCUCGGUAAUGGGGAAUGGGACCCA [G2A C75G],0.0615
19,GACCGGCAUGGUCCCAGCCUCCUCGCUGGCGCCGGCUGGGGAACAUUCCGAGGGGACCGUCCCCUCGGUAAUGGCGAAUGGGACCCA [G2A C41G],0.0645
20,GACCGGCAUGGUCCCAGCCUCCUCGCUGGCGCCGGCUGGGUAACAUUCCGAGGGGACCGUCCCCUCGGUAAUGGCGAAUGGGACCCA [G2A C41U],0.198
21,GACCGGCAUGGUCGCAGCCUCCUCGCUGGCGCCGGCUGGGCAACAUUCCGAGGGGACCGUCCCCUCGGUAAUGGCGAAUGGGACCCA [G2A C14G],0.0773
22,GACCGGCAUGGUCUCAGCCUCCUCGCUGGCGCCGGCUGGGCAACAUUCCGAGGGGACCGUCCCCUCGGUAAUGGCGAAUGGGACCCA [G2A C14U],0.169

row,Variant,self-cleavage
1,GACCCGCAUGGUCCCAGCCUCCUCGCUGGCGCCGGCUGGGCAACAUUCCGAGGGGACCGUCCCCUCGGUAAUGGCGAAUGGGACCCA [G2A G5C],0.0419
2,GACCGGCAUGGUCCCAGCCUCCUCGCUGGCGCCGGCUGGGCAAGAUUCCGAGGGGACCGUCCCCUCGGUAAUGGCGAAUGGGACCCA [G2A C44G],0.0185
3,GACCGGCAUGGUCCCAGCCUCCUCGCUGGCGCCGGCUGGGCAAAAUUCCGAGGGGACCGUCCCCUCGGUAAUGGCGAAUGGGACCCA [G2A C44A],0.0875
4,GACCGGCAUGCUCCCAGCCUCCUCGCUGGCGCCGGCUGGGCAACAUUCCGAGGGGACCGUCCCCUCGGUAAUGGCGAAUGGGACCCA [G2A G11C],0.0519
5,GACCGGCAUGGUCCCAGCCUACUCGCUGGCGCCGGCUGGGCAACAUUCCGAGGGGACCGUCCCCUCGGUAAUGGCGAAUGGGACCCA [G2A C21A],0.0158
6,GACCGGCAUGGUCCCAGCCUUCUCGCUGGCGCCGGCUGGGCAACAUUCCGAGGGGACCGUCCCCUCGGUAAUGGCGAAUGGGACCCA [G2A C21U],0.0161
7,GACCGGCAUGGUCCCAGCCUCCUCGCUGGCGCCGGCUGGGCAACAUUCCGAGGGGACCGUCCCCUCGGUAAUGGCGAUUGGGACCCA [G2A A78U],0.0674
8,GACCGGCAUUGUCCCAGCCUCCUCGCUGGCGCCGGCUGGGCAACAUUCCGAGGGGACCGUCCCCUCGGUAAUGGCGAAUGGGACCCA [G2A G10U],0.0837
9,GACCGGCAUCGUCCCAGCCUCCUCGCUGGCGCCGGCUGGGCAACAUUCCGAGGGGACCGUCCCCUCGGUAAUGGCGAAUGGGACCCA [G2A G10C],0.105
10,GACCGGCAUGGUUCCAGCCUCCUCGCUGGCGCCGGCUGGGCAACAUUCCGAGGGGACCGUCCCCUCGGUAAUGGCGAAUGGGACCCA [G2A C13U],0.058
11,GACCGGCAUGGUCCCAGCCUCCUCGCUGGCGCCGGCUGGGCAACAUUCCGAGGGGACCGUCCCCUCGGUAAUGGCGGAUGGGACCCA [G2A A77G],0.141
12,GACCGGCAUGGUCCCAGCCUCCUCGCUGGCGCCGGCUGGGCAACAUUCCGAGGGGACCGUCCCCUCGGUAAUGGCGCAUGGGACCCA [G2A A77C],0.0437
13,GACCGGCAUGGUCCCAGCCUCCUCGCUGGCGCCGGCUGGGCAACAUUCCGAGGGGACCGUCCCCUCGGUAAUGGCGUAUGGGACCCA [G2A A77U],0.0631
14,GACCGGCAUGGUCCCAGCCUCCUCGCUGGCGGCGGCUGGGCAACAUUCCGAGGGGACCGUCCCCUCGGUAAUGGCGAAUGGGACCCA [G2A C32G],0.0441
15,GACCGGCAUGGUCCCAGCCUCCUCGCUGGCGACGGCUGGGCAACAUUCCGAGGGGACCGUCCCCUCGGUAAUGGCGAAUGGGACCCA [G2A C32A],0.0507
16,GACUGGCAUGGUCCCAGCCUCCUCGCUGGCGCCGGCUGGGCAACAUUCCGAGGGGACCGUCCCCUCGGUAAUGGCGAAUGGGACCCA [G2A C4U],0.163
17,GACCGGCAUGGUCCCAGCCUCCUCGCUGGCGCCGGCUGGGCAACAUUCCGAGGGGACCGUGCCCUCGGUAAUGGCGAAUGGGACCCA [G2A C61G],0.102
18,GACCGGCAUGGUCCCAGCCUCCUCGCUGGCGCCGGCUGGGCAACAUUCCGAGGGGACCGUACCCUCGGUAAUGGCGAAUGGGACCCA [G2A C61A],0.351
19,GACCGGCAUGGUCCCAGCCUCCUCGCUGGCGCCGGCUGGGCAACAUUCCGAGGGGACCGUUCCCUCGGUAAUGGCGAAUGGGACCCA [G2A C61U],0.149
20,GACCGGCAUGGUCCCAGCCUCCUCGCUGGCGCCGGCUGGGCAACAUUCCGAGGGGACCGUCGCCUCGGUAAUGGCGAAUGGGACCCA [G2A C62G],0.086
21,GACCGGCAUGGUCCCAGCCUCCUCGCUGGCGCCGGCUGGGCAACAUUCCGAGGGGACCGUCACCUCGGUAAUGGCGAAUGGGACCCA [G2A C62A],0.137
22,GACCGGCAUGGUCCCAGCCUCCUCGCUAGCGCCGGCUGGGCAACAUUCCGAGGGGACCGUCCCCUCGGUAAUGGCGAAUGGGACCCA [G2A G28A],0.0107

row,Variant,self-cleavage
1,GACCGGCAUGGUCCCAGCCUCCUUGCUGGCGCCGGCUGGGCAACAUUCCGAGGGGACCGUCCCCUCGGUAAUGGCGAAUGGGACCCA [G2A C24U],0.101
2,GACCGGCAUGGUCCCAGCCUCCUCGCUGCCGCCGGCUGGGCAACAUUCCGAGGGGACCGUCCCCUCGGUAAUGGCGAAUGGGACCCA [G2A G29C],0.0292
3,GACCGGCAUGGUCCCAGCCUCCUCGCUGUCGCCGGCUGGGCAACAUUCCGAGGGGACCGUCCCCUCGGUAAUGGCGAAUGGGACCCA [G2A G29U],0.0205
4,GACCGGCAUGGUCCAAGCCUCCUCGCUGGCGCCGGCUGGGCAACAUUCCGAGGGGACCGUCCCCUCGGUAAUGGCGAAUGGGACCCA [G2A C15A],0.0382
5,GACCGGCAUGGUCCUAGCCUCCUCGCUGGCGCCGGCUGGGCAACAUUCCGAGGGGACCGUCCCCUCGGUAAUGGCGAAUGGGACCCA [G2A C15U],0.113
6,GAUCGGCAUGGUCCCAGCCUCCUCGCUGGCGCCGGCUGGGCAACAUUCCGAGGGGACCGUCCCCUCGGUAAUGGCGAAUGGGACCCA [G2A C3U],0.567
7,GAACGGCAUGGUCCCAGCCUCCUCGCUGGCGCCGGCUGGGCAACAUUCCGAGGGGACCGUCCCCUCGGUAAUGGCGAAUGGGACCCA [G2A C3A],0.0478
8,GACCGGCAUGGUCCCAGCCUCCUCGCUGGCGCCGGCUGGGCAACAUUCCGAGGGGACCGUCCCCUCGGUAAUGGCGAAUGGGCCCCA [G2A A83C],0.0583
9,GACCGGCAUGGUCCCAGCCUCCUCGCUGGCGCCGGCUGGGCAACAUUCCGAGGGGACCGUCCCCUCGGUAAUGGCGAAUGGGGCCCA [G2A A83G],0.122
10,GACCGGCAUGGUCCCAGCCUCCUCGCUGGCGCCGGCUGGGCAACAUUCCGAGGGGACGGUCCCCUCGGUAAUGGCGAAUGGGACCCA [G2A C58G],0.151
11,GACCGGCAUGGUCCCAGCCUCCUCGCUGGCGCUGGCUGGGCAACAUUCCGAGGGGACCGUCCCCUCGGUAAUGGCGAAUGGGACCCA [G2A C33U],0.035
12,GACCGGCAUGGUCCCAGCCUCCUCGCUGGCGCCGGCUGGGCAACAUUCCGAGGGGAGCGUCCCCUCGGUAAUGGCGAAUGGGACCCA [G2A C57G],0.158
13,GACCGGCAUGGUCCCAGCCUCCUCGCUGGCGCCGGCUGGGCAACAUUCCGAGGGGAACGUCCCCUCGGUAAUGGCGAAUGGGACCCA [G2A C57A],0.258
14,GACCGGCAUGGUCCCAGCCUCCUCGCUGGCGCCGGCUGGGCAACAUUCGGAGGGGACCGUCCCCUCGGUAAUGGCGAAUGGGACCCA [G2A C49G],0.135
15,GACCGGCAUGGUCCCAGCCUCCUCGCUGGCGCCGGCUGGGCAACAUUCAGAGGGGACCGUCCCCUCGGUAAUGGCGAAUGGGACCCA [G2A C49A],0.122
16,GACCGGCAUGGUCCCAGCGUCCUCGCUGGCGCCGGCUGGGCAACAUUCCGAGGGGACCGUCCCCUCGGUAAUGGCGAAUGGGACCCA [G2A C19G],0
17,GACCGGCAUGGUCCCAGCCUCCUCGCUGGCGCCGGCUGGGCAACAUUCCGAGGGGACCGUCCCCUAGGUAAUGGCGAAUGGGACCCA [G2A C66A],0.194
18,GACCGGCAUGGUCCCAGCCUCCUCGCUGGCGCCGGCUGGGCAACAUUCCGAGGGGACCGUCCCCUGGGUAAUGGCGAAUGGGACCCA [G2A C66G],0.213
19,GACCGGCAUGGUCCCAGCCUCCUCGCUGGCACCGGCUGGGCAACAUUCCGAGGGGACCGUCCCCUCGGUAAUGGCGAAUGGGACCCA [G2A G31A],0.0729
20,GACCGGCAUGGUCCCAGCCUCCUCGCUGGCGCCGGCUGGGCAACAUUCCGAGGGGACCGUCCCGUCGGUAAUGGCGAAUGGGACCCA [G2A C64G],0.0923
